# In US8999727:
# Assays:
# [1] = molecular target: truncated TSH receptor chimera B (extracellular portion) fused with the secretory alkaline phosphatase (human TSHR with rat LH-CGR subsequence); assay: bridge assay: standard at 15.0 IU/L on plate-bound TSH receptor chimera B, detected with SEAP-chimera B, chemiluminescence
# [2] = molecular target: truncated TSH receptor chimera B (extracellular portion) fused with the secretory alkaline phosphatase (human TSHR with rat LH-CGR subsequence); assay: bridge assay: standard at 0.8 IU/L on plate-bound TSH receptor chimera B, detected with SEAP-chimera B; RLU relative to zero serum
# [3] = molecular target: truncated TSH receptor chimera B (extracellular portion) fused with the secretory alkaline phosphatase (human TSHR with rat LH-CGR subsequence); assay: bridge assay: standard at 0.2 IU/L on plate-bound TSH receptor chimera B, detected with SEAP-chimera B, chemiluminescence
# [4] = molecular target: truncated TSH receptor chimera B (extracellular portion) fused with the secretory alkaline phosphatase (human TSHR with rat LH-CGR subsequence); assay: bridge assay: standard at 30.0 IU/L on plate-bound TSH receptor chimera B, detected with SEAP-chimera B, chemiluminescence
# [5] = molecular target: truncated TSH receptor chimera B (extracellular portion) fused with the secretory alkaline phosphatase (human TSHR with rat LH-CGR subsequence); assay: bridge assay: standard at 0.1 IU/L on plate-bound TSH receptor chimera B, detected with SEAP-chimera B; RLU relative to zero serum
# [6] = molecular target: truncated TSH receptor chimera B (extracellular portion) fused with the secretory alkaline phosphatase (human TSHR with rat LH-CGR subsequence); assay: bridge assay: standard at 0.5 IU/L on plate-bound TSH receptor chimera B, detected with SEAP-chimera B, chemiluminescence
# [7] = molecular target: truncated TSH receptor chimera B (extracellular portion) fused with the secretory alkaline phosphatase (human TSHR with rat LH-CGR subsequence); assay: bridge assay: standard at 0.3 IU/L on plate-bound TSH receptor chimera B, detected with SEAP-chimera B; RLU relative to zero serum
# [8] = molecular target: truncated TSH receptor chimera B (extracellular portion) fused with the secretory alkaline phosphatase (human TSHR with rat LH-CGR subsequence); assay: bridge assay: standard at 0.4 IU/L on plate-bound TSH receptor chimera B, detected with SEAP-chimera B, chemiluminescence
# [9] = molecular target: truncated TSH receptor chimera B (extracellular portion) fused with the secretory alkaline phosphatase (human TSHR with rat LH-CGR subsequence); assay: bridge assay: standard at 0.9 IU/L on plate-bound TSH receptor chimera B, detected with SEAP-chimera B, chemiluminescence
# [10] = molecular target: truncated TSH receptor chimera B (extracellular portion) fused with the secretory alkaline phosphatase (human TSHR with rat LH-CGR subsequence); assay: bridge assay: standard at 50.0 IU/L on plate-bound TSH receptor chimera B, detected with SEAP-chimera B; RLU relative to zero serum
# [11] = molecular target: truncated TSH receptor chimera B (extracellular portion) fused with the secretory alkaline phosphatase (human TSHR with rat LH-CGR subsequence); assay: bridge assay: standard at 1.0 IU/L on plate-bound TSH receptor chimera B, detected with SEAP-chimera B, chemiluminescence
# [12] = molecular target: truncated TSH receptor chimera B (extracellular portion) fused with the secretory alkaline phosphatase (human TSHR with rat LH-CGR subsequence); assay: bridge assay: standard at 2.0 IU/L on plate-bound TSH receptor chimera B, detected with SEAP-chimera B; RLU relative to zero serum
# [13] = molecular target: truncated TSH receptor chimera B (extracellular portion) fused with the secretory alkaline phosphatase (human TSHR with rat LH-CGR subsequence); assay: bridge assay: standard at 2.0 IU/L on plate-bound TSH receptor chimera B, detected with SEAP-chimera B, chemiluminescence
# [14] = molecular target: truncated TSH receptor chimera B (extracellular portion) fused with the secretory alkaline phosphatase (human TSHR with rat LH-CGR subsequence); assay: bridge assay: standard at 0.8 IU/L on plate-bound TSH receptor chimera B, detected with SEAP-chimera B, chemiluminescence
# [15] = molecular target: truncated TSH receptor chimera B (extracellular portion) fused with the secretory alkaline phosphatase (human TSHR with rat LH-CGR subsequence); assay: bridge assay: standard at 5.0 IU/L on plate-bound TSH receptor chimera B, detected with SEAP-chimera B, chemiluminescence
# [16] = molecular target: truncated TSH receptor chimera B (extracellular portion) fused with the secretory alkaline phosphatase (human TSHR with rat LH-CGR subsequence); assay: bridge assay: standard at 0.1 IU/L on plate-bound TSH receptor chimera B, detected with SEAP-chimera B, chemiluminescence
# [17] = molecular target: truncated TSH receptor chimera B (extracellular portion) fused with the secretory alkaline phosphatase (human TSHR with rat LH-CGR subsequence); assay: bridge assay: standard at 5.0 IU/L on plate-bound TSH receptor chimera B, detected with SEAP-chimera B; RLU relative to zero serum
# [18] = molecular target: truncated TSH receptor chimera B (extracellular portion) fused with the secretory alkaline phosphatase (human TSHR with rat LH-CGR subsequence); assay: bridge assay: standard at 0.9 IU/L on plate-bound TSH receptor chimera B, detected with SEAP-chimera B; RLU relative to zero serum
# [19] = molecular target: truncated TSH receptor chimera B (extracellular portion) fused with the secretory alkaline phosphatase (human TSHR with rat LH-CGR subsequence); assay: bridge assay: standard at 50.0 IU/L on plate-bound TSH receptor chimera B, detected with SEAP-chimera B, chemiluminescence
# [20] = molecular target: truncated TSH receptor chimera B (extracellular portion) fused with the secretory alkaline phosphatase (human TSHR with rat LH-CGR subsequence); assay: bridge assay: standard at 0.7 IU/L on plate-bound TSH receptor chimera B, detected with SEAP-chimera B, chemiluminescence
# [21] = molecular target: truncated TSH receptor chimera B (extracellular portion) fused with the secretory alkaline phosphatase (human TSHR with rat LH-CGR subsequence); assay: bridge assay: standard at 0.7 IU/L on plate-bound TSH receptor chimera B, detected with SEAP-chimera B; RLU relative to zero serum
# [22] = molecular target: truncated TSH receptor chimera B (extracellular portion) fused with the secretory alkaline phosphatase (human TSHR with rat LH-CGR subsequence); assay: bridge assay: standard at 30.0 IU/L on plate-bound TSH receptor chimera B, detected with SEAP-chimera B; RLU relative to zero serum
# [23] = molecular target: truncated TSH receptor chimera B (extracellular portion) fused with the secretory alkaline phosphatase (human TSHR with rat LH-CGR subsequence); assay: bridge assay: standard at 0.5 IU/L on plate-bound TSH receptor chimera B, detected with SEAP-chimera B; RLU relative to zero serum
# [24] = molecular target: truncated TSH receptor chimera B (extracellular portion) fused with the secretory alkaline phosphatase (human TSHR with rat LH-CGR subsequence); assay: bridge assay: standard at 0.4 IU/L on plate-bound TSH receptor chimera B, detected with SEAP-chimera B; RLU relative to zero serum
# [25] = molecular target: truncated TSH receptor chimera B (extracellular portion) fused with the secretory alkaline phosphatase (human TSHR with rat LH-CGR subsequence); assay: bridge assay: standard at 0.2 IU/L on plate-bound TSH receptor chimera B, detected with SEAP-chimera B; RLU relative to zero serum
# [26] = molecular target: truncated TSH receptor chimera B (extracellular portion) fused with the secretory alkaline phosphatase (human TSHR with rat LH-CGR subsequence); assay: bridge assay: standard at 15.0 IU/L on plate-bound TSH receptor chimera B, detected with SEAP-chimera B; RLU relative to zero serum
# [27] = molecular target: truncated TSH receptor chimera B (extracellular portion) fused with the secretory alkaline phosphatase (human TSHR with rat LH-CGR subsequence); assay: bridge assay: standard at 1.0 IU/L on plate-bound TSH receptor chimera B, detected with SEAP-chimera B; RLU relative to zero serum
# [28] = molecular target: truncated TSH receptor chimera B (extracellular portion) fused with the secretory alkaline phosphatase (human TSHR with rat LH-CGR subsequence); assay: bridge assay: standard at 0.6 IU/L on plate-bound TSH receptor chimera B, detected with SEAP-chimera B; RLU relative to zero serum
# [29] = molecular target: truncated TSH receptor chimera B (extracellular portion) fused with the secretory alkaline phosphatase (human TSHR with rat LH-CGR subsequence); assay: bridge assay: standard at 0.3 IU/L on plate-bound TSH receptor chimera B, detected with SEAP-chimera B, chemiluminescence
# [30] = molecular target: truncated TSH receptor chimera B (extracellular portion) fused with the secretory alkaline phosphatase (human TSHR with rat LH-CGR subsequence); assay: bridge assay: standard at 0.6 IU/L on plate-bound TSH receptor chimera B, detected with SEAP-chimera B, chemiluminescence
# truncated TSH receptor chimera B (extracellular portion) fused with the secretory alkaline phosphatase (human TSHR with rat LH-CGR subsequence), sequence (chain, as listed by the source mutant): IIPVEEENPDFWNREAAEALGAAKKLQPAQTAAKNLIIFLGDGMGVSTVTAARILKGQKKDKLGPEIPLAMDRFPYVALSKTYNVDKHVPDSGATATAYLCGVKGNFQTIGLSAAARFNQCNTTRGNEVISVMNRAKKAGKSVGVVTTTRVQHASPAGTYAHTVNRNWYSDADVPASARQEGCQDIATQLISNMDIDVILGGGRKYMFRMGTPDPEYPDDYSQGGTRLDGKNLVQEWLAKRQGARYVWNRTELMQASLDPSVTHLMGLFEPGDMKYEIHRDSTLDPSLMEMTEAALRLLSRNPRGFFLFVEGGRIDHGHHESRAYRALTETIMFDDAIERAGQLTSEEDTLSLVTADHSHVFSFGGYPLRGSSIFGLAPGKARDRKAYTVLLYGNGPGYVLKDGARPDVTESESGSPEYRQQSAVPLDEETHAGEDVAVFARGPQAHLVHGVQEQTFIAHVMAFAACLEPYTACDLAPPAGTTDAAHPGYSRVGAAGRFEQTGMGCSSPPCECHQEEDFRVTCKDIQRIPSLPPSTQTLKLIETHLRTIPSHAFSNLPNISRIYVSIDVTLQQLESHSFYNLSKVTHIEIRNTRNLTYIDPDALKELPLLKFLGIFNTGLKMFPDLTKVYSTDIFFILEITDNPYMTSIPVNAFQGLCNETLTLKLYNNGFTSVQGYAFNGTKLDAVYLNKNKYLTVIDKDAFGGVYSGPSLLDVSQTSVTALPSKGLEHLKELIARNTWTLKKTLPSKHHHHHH
substance,measurement,setting,value
standard solution WHO 90/672 with a standardized concentration of autoimmune antibody (TSH receptor auto-antibody standard),RLU Average n = 3,[1],2.48e+06 RLU
same,B/B0,[2],24.1
same,RLU Average n = 3,[3],46600 RLU
same,RLU Average n = 3,[4],3.77e+06 RLU
same,B/B0,[5],4.19
same,RLU Average n = 3,[6],98400 RLU
same,B/B0,[7],9.57
same,RLU Average n = 3,[8],81500 RLU
same,RLU Average n = 3,[9],192000 RLU
same,B/B0,[10],704
same,RLU Average n = 3,[11],183000 RLU
same,B/B0,[12],55.5
same,RLU Average n = 3,[13],382000 RLU
same,RLU Average n = 3,[14],166000 RLU
same,RLU Average n = 3,[15],939000 RLU
same,RLU Average n = 3,[16],28800 RLU
same,B/B0,[17],136
same,B/B0,[18],27.9
same,RLU Average n = 3,[19],4.85e+06 RLU
same,RLU Average n = 3,[20],136000 RLU
same,B/B0,[21],19.7
same,B/B0,[22],548
same,B/B0,[23],14.3
same,B/B0,[24],11.8
same,B/B0,[25],6.77
same,B/B0,[26],361
same,B/B0,[27],26.6
same,B/B0,[28],16.9
same,RLU Average n = 3,[29],65800 RLU
same,RLU Average n = 3,[30],117000 RLU
